Experiments:
[1] = molecular target: T1, Biotinylated His14-Avi-bdSUMO-tagged Nup98^716-866 (Xenopus tropicalis, UniProt A0A1B8XZT4, biotin on the Avi-tag); assay: pull-down; biotinylated His14-Avi-bdSUMO-Nup98^716-866 immobilized on Streptavidin agarose; GFP-tagged TP377 bound without or with an equimolar amount or fivefold excess of nanobody competitor; elution by cleavage of the bdSUMO tag; SDS-PAGE, Coomassie; conditions: both partners purified
T1 construct: also called Nup98 NPC anchor domain

[2] = molecular target: T2, Nup98 (endogenous, Xenopus egg extract) (Xenopus laevis (egg extract), UniProt A0A8J1MFV7); assay: affinity purification with mass spectrometry; biotinylated tagged nanobody on magnetic Streptavidin beads, Xenopus egg extract (HSS) 1 h at 4°C, washes in S250 and in 50 mM Tris/HCl pH 7.5, 300 mM NaCl, 0.05% Tween-20, RanQ69L•GTP wash, elution by SUMOStar protease; SDS-PAGE, Coomassie, bands identified by mass spectrometry; conditions: one partner purified
T2 construct: Xenopus Nup98, FG-repeat nucleoporin; source: endogenous, Xenopus egg extract (high-speed supernatant)

[3] = molecular target: T3, Nup98 in nuclear pore complexes of Xenopus laevis XL177 cells (Xenopus laevis XL177 cells, UniProt A0A8J1MFV7); assay: immunostaining of cells or tissue; digitonin-permeabilized Xenopus laevis XL177 cells, 1-10 nM fluorescent nanobody 15 min on ice, washed, then fixed; confocal laser scanning microscopy; conditions: one partner purified
T3 construct: Xenopus laevis Nup98 within intact NPCs; also called (x)Nup98; source: endogenous, digitonin-permeabilized Xenopus laevis XL177 cells

Row | binding result [1] | Binder | other results
1 | binds | untagged TP377 produced in the oxidative periplasm (VHH, also called oxidized, disulfide bond-stabilized nanobody; source: E. coli BLR periplasm) VHH: QVQLVESGGGPVEAGGSLRLSCAASGRSFSNSVMAWFRQAPGKEREFLSVLNWSSGRTSIADSVKGRFTMSRDPAKITVYLQMNGLKPEDTAVYYCAASNRGSLYTLDNQNRYEDWGQGTQVTVSS | 
2 |  | Biotinylated His14-Avi-(GlySer)9-SUMOStar-(GlySer)9-tagged anti-Nup98 nanobody TP377 (VHH, source: E. coli cytoplasm, co-expressed with BirA, purified (Ni2+ chelate, imidazole elution); not shown: His14, N-terminal, kept; (GlySer)9-scSUMOStar-(GlySer)9, N-terminal, kept) VHH: QVQLVESGGGPVEAGGSLRLSCAASGRSFSNSVMAWFRQAPGKEREFLSVLNWSSGRTSIADSVKGRFTMSRDPAKITVYLQMNGLKPEDTAVYYCAASNRGSLYTLDNQNRYEDWGQGTQVTVSS | binding result [2]: binds
3 | binds | 3x Alexa Fluor 488-labeled TP377 (VHH, also called 3xCys; source: E. coli cytoplasm, purified (Ni2+ chelate, bdNEDP1 cleavage), labeled with Alexa Fluor 488 maleimide; not shown: His14-bdNEDD8, N-terminal, cleaved) VHH: QVQLVECGGGPVEAGGSLRLSCAASGRSFSNSVMAWFRQAPGKEREFLSVLNWSSGRTSIADSVKGRFTMCRDPAKITVYLQMNGLKPEDTAVYYCAASNRGSLYTLDNQNRYEDWGQGTQVTVSS | 
4 |  | anti-Nup98 nanobody TP377 carrying a single N-terminal Alexa Fluor 647 maleimide (VHH, not shown: His14-bdNEDD8, N-terminal, cleaved) VHH: QVQLVESGGGPVEAGGSLRLSCAASGRSFSNSVMAWFRQAPGKEREFLSVLNWSSGRTSIADSVKGRFTMSRDPAKITVYLQMNGLKPEDTAVYYCAASNRGSLYTLDNQNRYEDWGQGTQVTVSS | binding result [3]: binds
5 | binds | untagged TP377 produced in the reductive cytoplasm of E. coli BLR (VHH, also called reduced variant; source: E. coli BLR cytoplasm) VHH: QVQLVESGGGPVEAGGSLRLSCAASGRSFSNSVMAWFRQAPGKEREFLSVLNWSSGRTSIADSVKGRFTMSRDPAKITVYLQMNGLKPEDTAVYYCAASNRGSLYTLDNQNRYEDWGQGTQVTVSS | 
6 | binds | untagged TP377 produced in the mildly oxidative cytoplasm of E. coli SHuffle (VHH, also called SHuffle-expressed TP377; source: E. coli SHuffle cytoplasm; not shown: His14-bdNEDD8, N-terminal, cleaved) VHH: QVQLVESGGGPVEAGGSLRLSCAASGRSFSNSVMAWFRQAPGKEREFLSVLNWSSGRTSIADSVKGRFTMSRDPAKITVYLQMNGLKPEDTAVYYCAASNRGSLYTLDNQNRYEDWGQGTQVTVSS | 
7 | binds | unlabeled TP377 (competitor in Figure 5—figure supplement 1c) (VHH) VHH: QVQLVESGGGPVEAGGSLRLSCAASGRSFSNSVMAWFRQAPGKEREFLSVLNWSSGRTSIADSVKGRFTMSRDPAKITVYLQMNGLKPEDTAVYYCAASNRGSLYTLDNQNRYEDWGQGTQVTVSS | 
